{"source": "patent US11820827B2", "about": "“Methods of treating myelodysplastic syndrome and acute myeloid leukemia with nonfucosylated anti-CD70 antibodies” (Seagen Inc., priority 2019, dated 2023)", "molecules": {"B1": {"name": "SEA-CD70: humanized, nonfucosylated monoclonal IgG1 antibody targeting CD70 (nonfucosylated h1F6) (antibody, chains of the INN, looked up, V domains shown)", "VH": "QVQLVQSGAEVKKPGASVKVSCKASGYTFTNYGMNWVRQAPGQGLKWMGWINTYTGEPTYADAFKGRVTMTRDTSISTAYMELSRLRSDDTAVYYCARDYGDYGMDYWGQGTTVTVSS", "VL": "DIVMTQSPDSLAVSLGERATINCRASKSVSTSGYSFMHWYQQKPGQPPKLLIYLASNLESGVPDRFSGSGSGTDFTLTISSLQAEDVAVYYCQHSREVPWTFGQGTKVEIK", "modifications": "nonfucosylated"}}, "key": {"[1]": {"system": "NOMO-1 CD70+ target cells", "assay": "ADCP with monocyte-derived macrophages, NOMO-1", "type": "cell-based, human", "conditions": "flow cytometry, antibody dose-dependent", "protocol": "(§1) Phagocytosis of fluorescently labeled target cells was determined by flow cytometry. Phagocytosis was measured for the appearance of double-labeled coincident events (fluorescent target cells) and anti-CD11c positivity to identify monocyte/macrophages.\n(§2) The following protocol was used to assess […] activity on AML cell lines: • 1. Target cells were labeled using the PKH26 Red Fluorescent Cell Linker Mini Kit (Sigma Aldrich) and following the manufacturer's instructions. • 2. Cells (4000 cells/well) were incubated with the indicated test articles for 30 minutes, washed and resuspended in RPMI plus 10% ultra-low IgG FBS. • 3. PBMC-derived macrophages (100,000 cells/well), generated by incubating PBMC-derived monocytes with 500 U/mL (50 ng/mL) GM-CSF for 10-12 days, were added to the target cells and incubated at 37° C. for 2 hours. • 4. Plates were centrifuged and cells resuspended in 100 μl of APC-CD11 antibody (macrophage marker) and incubated on ice for 30 minutes. • 5. Cells were washed, resuspended in PBS and analyzed by flow cytometry to determine the percentage of phagocytosis"}, "[2]": {"system": "MOLM-13 CD70+ target cells", "assay": "ADCP with monocyte-derived macrophages, MOLM-13", "type": "cell-based, human", "conditions": "flow cytometry, antibody dose-dependent", "protocol": "as §1, §2"}, "MV4-11 AML xenograft": {"system": "MV4-11 AML xenograft", "assay": "Tumor growth in the MV4-11 AML xenograft model, SEA-CD70, azacitidine, venetoclax (Example 11)", "type": "in vivo, SCID mice", "conditions": "antibody 10 mg/kg Q4dx5, azacitidine 2 mg/kg Q1dx5 3 cycles, venetoclax 25 mg/kg oral Q1dx21; comparisons at day 39", "text": "Tumor growth was reported as a volume and calculated as an average across animals within each treatment group (FIG. 11A). Immunocompromised SCID mice were implanted with 5×10e6 MV4-11 cells subcutaneously in the flank on day 0. When mean tumor size of 50 mm^3 (measured by using the formula: Volume (mm^3)=0.5*Length*Width^2, where the length is the longer dimension) was reached, mice were randomized into treatment groups of 10 mice per group. Stock concentrations of antibody and chemotherapy were diluted to the appropriate concentration and injected into animals at 10 μl/g of body weight. Tumor length and width, and animal weight were measured two times weekly throughout the study and tumor volume was calculated using the formula above. Animals were followed until tumor volume measured ˜1000 mm^3, at which time the animals were euthanized. Animals were dosed on various schedules based on treatment received; animals receiving antibody were treated with 10 mg/kg of antibody (Q4dx5), azacitidine-treated animals were dosed daily (2 mg/kg) for five consecutive days (Q1dx5) each week, for a total of 3 cycles (3 weeks); venetoclax was given at 25 mg/kg every day by oral gavage for 21 days consecutively (Q1dx21). Animal receiving combination of treatments received each treatment at the same dose and schedule as the single treatments."}}, "data": [{"molecule": "B1", "values": [{"measurement": "phagocytosis of antibody-coated target cells by macrophages", "setting": "[1]", "result": "readily phagocytosed target cells"}, {"measurement": "phagocytosis of antibody-coated target cells by macrophages", "setting": "[2]", "result": "readily phagocytosed target cells"}, {"measurement": "effect on tumor growth", "setting": "MV4-11 AML xenograft", "result": "delay tumor growth"}]}]}
